± gives the uncertainty stated by the source.
Test: self-splicing fitness, log relative to wild type (ln ratio); higher = more splicing; Tetrahymena group I intron in knt gene, E. coli kanamycin selection, DiMSum; sequences stand for … in CUCUCU…GGAGGGAAAAGUUAUCAGGCAUGCACCUGGUAGCUAGUCUUUAAACCAAUAGAUUGCAUCGGUUUAAAAGGCAAGACCGUCAAAUUGCGGGAAAGGGGUCAACAGCCGUUCAGUACCAAGUCUCAGGGGAAACUUUGAGAUGGCCUUGCAAAGGGUAUGGUAAUAAGCUGACGGACAUGGUCCUAACCACGCAGCCAAGUCCUAAGUCAACAGAUCUUCUGUUGAUAUGGAUGCAGUUCACAGACUAAAUGUCGGUCGGGGAAGAUGUAUUCUUCUCAUAAGAUAUAGUCGGACCUCUCCUUAAUGGGAGCUAGCGGAUGAAGUGAUGCAACACUGGAGCCGCUGGGAACUAAUUUGUAUGCGAAAGUAUAUUGAUUAGUUUUGGAGUACUCGUGGUCG
Outline: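 Fitness was computed with DiMSum as the error-weighted combination of replicate fold changes, kanamycin versus none, each normalised to wild type. The library randomised all eight intron nucleotides of the P1ex region, with the intron placed in the knt kanamycin-resistance gene on pET-22b(+) in E. coli BL21(DE3). Six replicate transformations were grown overnight at 37°C or 30°C on LB agar with or without 25 μg/mL kanamycin, plus 100 μg/mL carbenicillin, 50 μM IPTG and 0.2% rhamnose. Pooled colonies were amplicon-sequenced on an Illumina HiSeq 2500.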

Row | Sequence | self-splicing fitness (ln) (30 °C) | self-splicing fitness (ln) (37 °C)
1 | ACAAAGCAAUAUUACGGCUA | -0.14 ± 0.054 | -0.0776 ± 0.062
2 | ACAAAGCAAUAUUACGGGGA | -2.95 ± 0.14 | -1.05 ± 0.088
3 | ACAAAGCAAUAUUACGGUUA | -1.58 ± 0.092 | -0.719 ± 0.078
4 | ACAAAGCAAUAUUACGGUUU | -1.71 ± 0.076 | -0.493 ± 0.083
5 | ACAAAGCAAUAUUACGUACC | -1.13 ± 0.1 | -0.353 ± 0.12
6 | ACAAAGCAAUAUUACGUAUA | -2.79 ± 0.2 | -2.09 ± 0.22
7 | ACAAAGCAAUAUUACGUUAU | -2.81 ± 0.089 | -1.5 ± 0.089
8 | ACAAAGCAAUAUUACGUUUG | -2.98 ± 0.1 | -1.65 ± 0.12
9 | ACACAGCAAUAUUACGAACA | -1.69 ± 0.082 | -1.18 ± 0.079
10 | ACACAGCAAUAUUACGACGC | -0.0854 ± 0.07 | 0.622 ± 0.093
11 | ACACAGCAAUAUUACGAGGC | -3.49 ± 0.17 | -3.41 ± 0.29
12 | ACACAGCAAUAUUACGAGUU | -3.49 ± 0.14 | -2.18 ± 0.14
13 | ACACAGCAAUAUUACGAUCA | -1.39 ± 0.084 | -0.858 ± 0.095
14 | ACACAGCAAUAUUACGAUGU | -3.46 ± 0.1 | -1.18 ± 0.08
15 | ACACAGCAAUAUUACGCCGC | -3.21 ± 0.34 | -1.68 ± 0.16
16 | ACACAGCAAUAUUACGCCUA | -0.959 ± 0.065 | -0.392 ± 0.067
17 | ACACAGCAAUAUUACGCGCU | -0.741 ± 0.059 | -0.491 ± 0.068
18 | ACACAGCAAUAUUACGCUCU | -0.902 ± 0.069 | -0.159 ± 0.075
19 | ACACAGCAAUAUUACGGCCG | -0.675 ± 0.095 | -0.395 ± 0.12
20 | ACACAGCAAUAUUACGGCUA | -0.536 ± 0.071 | -0.218 ± 0.074
21 | ACACAGCAAUAUUACGGUCC | -1.31 ± 0.073 | -0.868 ± 0.089
22 | ACACAGCAAUAUUACGGUUC | -3.81 ± 0.14 | -2.03 ± 0.12
23 | ACACAGCAAUAUUACGUAUC | -3.71 ± 0.15 | -2.8 ± 0.15
24 | ACACAGCAAUAUUACGUAUG | -2.32 ± 0.076 | -1.9 ± 0.098

From the supplement of paper PMC7877785
